Source: the supplement of paper PMC10724198
± gives the standard deviation of the averaged measurements.

Test system: Saccharomyces cerevisiae
Experiment: protein stability index of tFT-peptide fusion (C-terminal peptide) (PSI (0-1 scale)); higher = more stable (slower turnover)
Settings: genetic background: wild type; temperature: 30 C
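Further: PSI is a weighted mean of sequencing reads over stability bins, variants kept only with over 10 reads, mCherry proximal and sfGFP distal, peptide attached via GGGS linker.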

Sequence | protein stability index
KKGKIKKFIIKK | 0.694 ± 0.17
KKGPANEWKRGE | 0.685 ± 0.081
KKGRGEGTKKKR | 0.602 ± 0.047
KKGYKTVETRIS | 0.69 ± 0.082
KKINKEINKEKM | 0.693 ± 0.022
KKITSIHKKRER | 0.822 ± 0.12
KKKDKKVKRRKV | 0.769 ± 0.031
KKKEGRMKQIYE | 0.688 ± 0.0088
KKKEKTSEEKKK | 0.701 ± 0.029
KKKGDKVGTKEQ | 0.657 ± 0.048
KKKIKIQPRTEN | 0.7302 ± 0.0065
KKKKDKEIIHKE | 0.758 ± 0.12
KKKKEEKQKGLK | 0.69 ± 0.028
KKKKEISNEAKQ | 0.672 ± 0.093
KKKKFQDQKIDE | 0.629 ± 0.0068
KKKKKEKNKIKI | 0.689 ± 0.14
KKKKKGASEDNI | 0.786 ± 0.1
KKKKKKKEKKAK | 0.644 ± 0.042
KKKKKKKEYKKK | 0.752 ± 0.038
KKKKKKKKKNNK | 0.6851 ± 0.0035
KKKKKKKYKQRK | 0.706 ± 0.05
KKKKKKTNKKKE | 0.758 ± 0.065
KKKKKKVKNTKE | 0.698 ± 0.047
KKKKNKKKNKKK | 0.669 ± 0.011
KKKKNKKKTKKT | 0.784 ± 0.17
KKKNKKKEKKKN | 0.714 ± 0.049

Sequence | protein stability index
KKKNNEKLEEKK | 0.687 ± 0.0098
KKKNNKRKAKNK | 0.6918 ± 0.0012
KKKNQLSKVTKR | 0.702 ± 0.031
KKKRNSYMKGNR | 0.681 ± 0.1
KKLAPHPLTTRV | 0.642 ± 0.078
KKLKQTRRKKEN | 0.7296 ± 0.0068
KKMSGNKLKNKN | 0.643 ± 0.013
KKNAFIYKRRPR | 0.714 ± 0.04
KKNHTQIKEVPR | 0.6943 ± 0.00099
KKNHYKAICNRR | 0.619 ± 0.0075
KKNICIKVENSY | 0.676 ± 0.031
KKNKEKGEREKK | 0.615 ± 0.058
KKNKGKGREVRI | 0.67 ± 0.049
KKNKKKKEKKAK | 0.625 ± 0.025
KKNKQEKPKKPK | 0.698 ± 0.0062
KKNSTKKKKESW | 0.633 ± 0.029
KKPHKTKGICYT | 0.673 ± 0.012
KKQHTIKKKKKR | 0.734 ± 0.028
KKQKKKQNKQKT | 0.731 ± 0.026
KKQKPKVTSTKT | 0.712 ± 0.037
KKQRKRKMTERG | 0.742 ± 0.11
KKRKKDKRSQER | 0.671 ± 0.068
KKRMDKIKDKKI | 0.713 ± 0.098
KKRQNIAKSEDT | 0.701 ± 0.025
KKRREKRTEKKQ | 0.661 ± 0.027
KKSERRGQKDYE | 0.696 ± 0.028

Sequence | protein stability index
KKSGISSGPNDT | 0.689 ± 0.043
KKSLNTKIQTRE | 0.707 ± 0.029
KKTDNGSYERGE | 0.701 ± 0.018
KKTKKGINVEER | 0.662 ± 0.0097
KKTKKKRTEPQP | 0.724 ± 0.068
KKTQKKKKLIPQ | 0.7046 ± 0.0062
KKVGHGLRERGQ | 0.628 ± 0.061
KKVKKKRSKKNT | 0.66 ± 0.17
KKYNNMRKHYVK | 0.701 ± 0.02
KLFWYLDCKLLY | 0.579 ± 0.0073
KLIVPCSPIRLS | 0.6929 ± 0.0043
KLKIDKKKNTFE | 0.728 ± 0.047
KLLLYNILSYWS | 0.56105 ± 0.00055
KMILVGMKKSVV | 0.6502 ± 0.0026
KMNKTEYINGMT | 0.652 ± 0.038
KNEEKIDKIEEQ | 0.72 ± 0.09
KNFGHQGDVCRR | 0.734 ± 0.037
KNKKFKKDEKTR | 0.773 ± 0.059
KNKNKKTPARYR | 0.692 ± 0.015
KNNKIKHIKVKN | 0.679 ± 0.017
KNPKKMKKVTTK | 0.694 ± 0.0091
KNQRTLKSPQEV | 0.6387 ± 0.0055
KNQTDRRKKIIN | 0.648 ± 0.039
KNVVSVRWERNE | 0.635 ± 0.084
KPKKKNPREKPV | 0.669 ± 0.064
KPPPSISLSWLE | 0.716 ± 0.0024

Sequence | protein stability index
KPQFNLQYTVKI | 0.616 ± 0.025
KQHWIDDRNRIE | 0.716 ± 0.065
KQKKKSQTKTRK | 0.718 ± 0.034
KQKNKNNVKQPN | 0.693 ± 0.012
KQKRQLPRKNET | 0.639 ± 0.0092
KQLKKKKQIRRK | 0.728 ± 0.13
KQNQKKREITAG | 0.664 ± 0.055
KREEKKTKRKKK | 0.712 ± 0.048
KRGKRKEGGKAR | 0.687 ± 0.065
KRIRTKLKKTQK | 0.695 ± 0.011
KRKKEKNQPTKR | 0.6972 ± 0.0044
KRKKNKEENQTE | 0.708 ± 0.016
KRLEFLTHAVFK | 0.7281 ± 0.0025
KRSVSIESMTQA | 0.699 ± 0.011
KSASIGTTLRNL | 0.699 ± 0.022
KSDKVYKQKPNT | 0.705 ± 0.11
KSIVAQGRLKPR | 0.685 ± 0.026
KSKTYIKKTRKQ | 0.744 ± 0.031
KSRRTTMINIRC | 0.668 ± 0.016
KTALWQPNCKTD | 0.655 ± 0.011
KTFGHQYVFIRK | 0.689 ± 0.013
KTKKRHKENRKE | 0.791 ± 0.067
KTKNEKHPKTTK | 0.766 ± 0.045
KTLALSAQHPGS | 0.645 ± 0.012
KTNKDKKRTKTV | 0.714 ± 0.2
KTTTQRQEETAE | 0.605 ± 0.033

Sequence | protein stability index
KVAFKTNQHLGR | 0.661 ± 0.03
KVAGRLAATRSR | 0.716 ± 0.013
KVCGRIWWCPRA | 0.638 ± 0.03
KVDYIKKKNSRE | 0.7142 ± 0.0036
KVEVKRMKKEVK | 0.668 ± 0.014
KVFTQGPGRMLE | 0.758 ± 0.021
KVGGRGQGVKLG | 0.629 ± 0.034
KVIGSAPRAEGR | 0.656 ± 0.065
KVLGSNNMRRSS | 0.702 ± 0.018
KVMTEARTPALS | 0.702 ± 0.027
KVRGMKIKGKLD | 0.675 ± 0.054
KVYTALWLLAGN | 0.698 ± 0.028
KWETAAGSSDGP | 0.6993 ± 0.0032
KWNITKEQENSR | 0.681 ± 0.018
KWQRIKNSPNRK | 0.749 ± 0.059
KYNKSRRGKIKT | 0.697 ± 0.062
LAALVGGNRGRG | 0.704 ± 0.081
LAAVAAGDVGGG | 0.674 ± 0.035
LALTFRLQAPLA | 0.695 ± 0.017
LANAGLVLPRIP | 0.679 ± 0.0071
LAPPIRPCPPSP | 0.681 ± 0.056
LAPTNAPYPHPM | 0.658 ± 0.015
LASCVTRTMAWD | 0.664 ± 0.071
LASREFGVFCIW | 0.648 ± 0.057
LATGCVGVRGHE | 0.719 ± 0.023
LAVILLVLPGND | 0.563 ± 0.011

Sequence | protein stability index
LAWFDLAPSTLP | 0.827 ± 0.14
LAWYPGYCYCCL | 0.598 ± 0.0089
LAYAPLNGDVPY | 0.68 ± 0.01
LCAETGVGPGLW | 0.724 ± 0.016
LCGFLPSFHLLY | 0.679 ± 0.0088
LCHESFDGTFVN | 0.72 ± 0.022
LCLCGLLGSGPT | 0.736 ± 0.042
LCLFGGLVAFWC | 0.585 ± 0.027
LCPALLFLLARS | 0.5141 ± 0.0033
LCPDFSLQWSFD | 0.759 ± 0.019
LCPPLPPSPPRS | 0.70073 ± 0.00018
LCQWLIEFTVLF | 0.515 ± 0.025
LCSPSPPCPRLP | 0.748 ± 0.025
LDEQKLKLPPVK | 0.736 ± 0.024
LDFLLSMVHGKK | 0.702 ± 0.022
LDGLNLVRVVGV | 0.674 ± 0.044
LDINWVGGAPEV | 0.727 ± 0.042
LDKLLFIFNCGC | 0.66 ± 0.044
LDRGPFADQAPH | 0.678 ± 0.012
LEGNRGYKRNGK | 0.637 ± 0.084
LELTTIRHNHEL | 0.695 ± 0.029
LERSTCYPREPM | 0.69 ± 0.1
LESLPSPLHLPM | 0.629 ± 0.026
LETIFEDFGKYR | 0.794 ± 0.092
LFAGPPTGPNAR | 0.802 ± 0.12
LFANGSGSSTSR | 0.715 ± 0.031

Sequence | protein stability index
LFCARNGILLSV | 0.516 ± 0.0084
LFCSSHRMQTKL | 0.746 ± 0.029
LFFLLCHVGSFR | 0.516 ± 0.0085
LFGFFLECCFCT | 0.599 ± 0.052
LFGGCRLVGSVV | 0.711 ± 0.023
LFGLCLAGFCVP | 0.625 ± 0.046
LFIVSFSPGFPF | 0.635 ± 0.11
LFLELSSCVGVF | 0.62 ± 0.024
LFLFPVCFTNDL | 0.661 ± 0.025
LFLFSSAGYPNS | 0.661 ± 0.1
LFLLALFPPPAS | 0.738 ± 0.013
LFLSFFLPSYNT | 0.66 ± 0.026
LFLTFYSPLSFT | 0.646 ± 0.022
LFPCFSFPFSFL | 0.587 ± 0.055
LFPHPGPHHPSV | 0.716 ± 0.016
LFPPAFSAFLPF | 0.725 ± 0.024
LFPPTPRPLPLP | 0.654 ± 0.023
LFRRVASILPRD | 0.668 ± 0.013
LFSCVFFLCLNF | 0.512 ± 0.0074
LFTDIQAPSVKH | 0.788 ± 0.18
LFVLSLHLPCFG | 0.498 ± 0.02
LFVSPRPFRSVL | 0.7495 ± 0.0063
LFWFSRVVCMSF | 0.564 ± 0.048
LFYFDTWFFPPP | 0.762 ± 0.097
LFYVNIPTQFVR | 0.564 ± 0.014
LGCLVGVRFLGF | 0.642 ± 0.032

Sequence | protein stability index
LGDGAVVAEESG | 0.642 ± 0.062
LGDLVFGLSVWL | 0.684 ± 0.035
LGFLLSLVCLLG | 0.532 ± 0.015
LGGEVDLGPARG | 0.662 ± 0.092
LGGTRRVGLALV | 0.685 ± 0.057
LGGWWVSRVGEP | 0.732 ± 0.037
LGKGRYNIKINK | 0.695 ± 0.016
LGLPSSLGPSDF | 0.682 ± 0.011
LGLRSGQGPVTL | 0.7746 ± 0.00092
LGLRSRIYMLVD | 0.664 ± 0.0083
LGLSTVKLEVPW | 0.7731 ± 0.0016
LGMGWGSGLERW | 0.826 ± 0.12
LGPRVGDPDGRF | 0.742 ± 0.019
LGPSPQRLRYPT | 0.65 ± 0.035
LGSILSSSSSRL | 0.699 ± 0.018
LGSSQVGLVRRV | 0.663 ± 0.011
LGSVLSLVRFGR | 0.677 ± 0.016
LGVSVVEPGRVR | 0.702 ± 0.04
LGVVCVGWLGGL | 0.664 ± 0.03
LGWDGSRRRPGL | 0.727 ± 0.14
